Experimental data reported in PMC3932107.
pKd: −log10 of the molar value.

What was measured:
[1] = target: CPM-labeled γ-synuclein (human) (UniProt O76070); assay: other fluorescence titration
[2] = target: Alexa488-labeled γ-synuclein (human) (UniProt O76070); assay: photon counting histogram

| pKd [1] | stoichiometry N [2] | Substance |
| --- | --- | --- |
| 8.30 | – | γ-synuclein, purified from E. coli, unlabelled (from UniProt O76070 1-127) (natural protein) |
| – | 20 | Alexa488-labeled γ-synuclein (from UniProt O76070 1-127) (natural protein) |
